Laboratory results: US20210317201A1 (Boehringer Ingelheim, published 2021)
Numbering of substitutions follows the chain as printed. Where “and” joins values, the source holds several entries; their conditions need not be identical. Equal values may be shown once.

T1: recombinant human IL-23 (human, UniProt P29460 23-328)
T1 construct: also called Human recombinant IL-23
T1 sequence 1: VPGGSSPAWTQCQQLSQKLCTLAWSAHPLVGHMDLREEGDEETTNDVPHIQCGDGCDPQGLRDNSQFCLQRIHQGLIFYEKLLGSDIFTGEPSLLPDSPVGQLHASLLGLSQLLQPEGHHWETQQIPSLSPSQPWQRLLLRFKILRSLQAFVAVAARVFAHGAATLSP
T1 sequence 2: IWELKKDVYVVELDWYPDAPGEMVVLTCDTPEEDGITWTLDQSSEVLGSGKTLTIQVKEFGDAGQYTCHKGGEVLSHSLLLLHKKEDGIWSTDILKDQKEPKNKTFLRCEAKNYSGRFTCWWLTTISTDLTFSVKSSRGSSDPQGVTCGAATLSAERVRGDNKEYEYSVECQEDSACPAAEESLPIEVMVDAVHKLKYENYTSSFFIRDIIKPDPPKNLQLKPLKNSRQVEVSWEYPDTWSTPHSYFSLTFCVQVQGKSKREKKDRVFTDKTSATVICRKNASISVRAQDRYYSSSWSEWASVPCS

T2: natural human IL-23 from activated THP-1 cells (human, UniProt P29460 23-328)
T2 sequence 1: T1 sequence 1
T2 sequence 2: T1 sequence 2

B1: 15C11 (antibody, V domains shown)
VH: EVQLQQSGPVLVKPGASVKMSCKASGYTFTDYYMNWVKQSHGKSLEWIGVIIPYNGGTSYNQKFKGKATLTVDKSSSTAYMELNSLTSEDSAVYYCARDGHRWYFDVWGTGTTVTVSS
VL: DVVMTQTPLSLPVSLGDQASISCRSSQSLVHSNGNTYLHWYLQKPGQSPKLLIYKVSNRFSGVPDRFSGSGSGTDFTLKINRVEAEDLGVYFCSQSTHVPYTFGGGTQLEIK
notes: Mouse monoclonal antibody from hybridoma; also called 15C11vk; 15C11vh
B2: 34G3 (antibody, V domains shown)
VH: EFQLQQSGPELVKPGASVKISCKASGYSFTDYNMNWVKQSKGKSLEWIGVIIPNYGFTSYNQNFKGKATLTVDQSSSTAHMQLNSVTSEDSAVYYCVRDGGILLWYLDVWGTGTTVTVSS
VL: B1 VL with N81S, Q108K, K112N
notes: Mouse monoclonal antibody from hybridoma; also called 34G3Vk; 34G3VH
B3: 43F5 (antibody, V domains shown)
VH: EVQLQQSGPELVKPGASVKISCRASGYSFTGYYMNWVKQSPEKSLEWIGEIIPTTGGTSYNQKFKAKATLTVDKSSSTAYMQLKSLTSEDSAVYYCARESGGFYWYFDVWGTGTTVTVSS
VL: B1 VL with T7S, Q43L, N81S, Q108K
notes: Mouse monoclonal antibody from hybridoma; also called 43F5vk; 43F5vh
B4: 18C4 (antibody, V domains shown)
VH: EVQLQQSGPEVVKPGASVKMSCKASGYTFTSSVIHWVKQKAGQGLEWIGYINPYNDGTKYNEKFKGKATLTSDRSSSTAYMELSSLTSEDSAVYYCTRRLDEAYWGQGTLVTVSA
VL: DIVMTQSPATLSVTPGDRVSLSCRASQSISEYLHWYQQKSHESPRLLIKYASQSISGIPSRFSGSGSGSDFTLSINSVEPEDVGVYYCQNGHSFPFTFGSGTKLEIK
notes: Mouse monoclonal antibody from hybridoma; also called 18C4vk; 18C4vh
B5: 31H9 (antibody, V domains shown)
VH: EVQLQQSGPELVKPGASVKMSCKASGYTFTRYLMHWVKQKPGQGLEWIGYINPYNDGTNYNEKFKGKATLTSDKSSSTAYMELSSLTSEDSAVYYCSLNWDYAYWGQGTLVTVSA
VL: B4 VL with E31D, F96Y, S100G
notes: Mouse monoclonal antibody from hybridoma; also called 31H9vk; 31H9vh
B6: 18E5 (antibody, V domains shown)
VH: B5 VH with S17A, M34I, N59K, S97T, L98S, Y102L, A103D, L110T, V111L, A115S
VL: B4 VL with E31D, H34Y, Y50F, S63T, N76D, E81D, Y86F, Y87F, S100G
notes: Mouse monoclonal antibody from hybridoma; also called 18E5vk; 18E5vh
B7: 24A5 (antibody, V domains shown)
VH: B5 VH with R31T, Y32S, L33I, N55D, G57V, N59K, S97V, L98R, N99R, Y102E
VL: B4 VL with D17N, E31D, D70N
notes: Mouse monoclonal antibody from hybridoma; also called 24A54vk; 24A5vh
B8: 18D3 (antibody, V domains shown)
VH: B5 VH with M34I, N59K, S97T, L98S, Y102L, A103D, L110T, V111L, A115S
VL: B4 VL with E31D, H34Y, Y50F, S63T, N76D, E81D, Y86F, Y87F, S100G
notes: Mouse monoclonal antibody from hybridoma; also called 18D3vk; 18D3vh
B9: 22E2 (antibody, V domains shown)
VH: B4 VH with V11L, V33I, K40R, A41P, N55D, G57V, R74K, T97A, L100W, A103S
VL: B4 VL with E31V, H41P
notes: Mouse monoclonal antibody from hybridoma; also called 22E2vk; 22E2vh
B10: 20E8 (antibody, V domains shown)
VH: B4 VH with V11L, I34M, K59Q, R74K, S75F
VL: B4 VL
notes: Mouse monoclonal antibody from hybridoma; also called 20E8vk; 20E8vh
B11: 27G8 (antibody, V domains shown)
VH: QVQLQQSDAELVKPGASVKISCKVSGYTFTDHTIHWMKQRPEQGLEWIGYIYPRDGYPKFNEKFKGKATLTADKSSSTAYMQLNSLTSEDSAVYFCARRPPYYAMDYWGQGTSVAVSS
VL: DIVLTQSPASLAVSLGQRATISCRASKSVSTSGYSYIHWYQQKPGQPPKFLIYLASNLDSGVPARFSGSGSGTDFTLNIHPVEEEDAATYYCQHSRELPYTFGGGTKLEIK
notes: Mouse monoclonal antibody from hybridoma; also called 27G8vk; 27G8vh
B12: 26F7 (antibody, V domains shown)
VH: EVQLQQSGPELVKPGASVKISCKASGYTFTDYYMNWVRQSHGESLEWIGDFNHNNDVITYNPKFKGKVTLTVEKSSTTAYMELRSLSSEDSAVYYCARGLRGYYAMDYWGQGTSVTVSS
VL: B11 VL with S30R, T31F, G33D, S35F, I37M, F50L, D59E, H94N
notes: Mouse monoclonal antibody from hybridoma; also called 26F7Vk; 26F7VH
B13: 73H10 (antibody, V domains shown)
VH: B5 VH with L33V, G57V, N59K, K74R, E82K, S97A, L98R, Y102V, A103P, V111I
VL: DIQMTQSPVFLSASVGETVTITCRASENIDSYLAWYQQKQGKSPQLLVFAARNLADGVPSRFSGSGSGTQYSLKINRMQSEDVARYYCQHYYSTPFTFGSGTKLEIE
notes: Mouse monoclonal antibody from hybridoma; also called 73H10Vk; 73H10VH
B14: 74H3 (antibody, V domains shown)
VH: B5 VH with N59K, K63R, S97A, L98R, Y102V, A103P
VL: DIQMTQSPASLSASVGETVIFTCRASENIDSYLAWYQQKQGKSPQLLVYAATNLADGVPSRFSGSGSGTQYSLKINSLQSEDVARYYCLHYYSTPFTFGSGTELEIK
notes: Mouse monoclonal antibody from hybridoma; also called 74H3Vk; 74H3VH
B15: 2D1 (antibody, V domains shown)
VH: QVQLKESGPGLVAPSQSLSITCTVSGFSLTTYAISWVRQSPGKGLEWLGVIWTGGGTKYNSALKSRLSISKDNSKSQVFLKMNSLQTDDTARYYCARKDYNYGGAMDYWGQGTSVTVSS
VL: DIVLTQSPGSLAVSLGQRATISCRTSESVYSYGQNFIHWYQQKPGQPPKLLIYRASNLESGIPARFSGSGSRTDFTLTMNPVEADDVATYYCQQTNEDPYTFGGGTKLEIR
notes: Mouse monoclonal antibody from hybridoma; also called 2D1vk; 2D1vh
B16: 9D12 (antibody, V domains shown)
VH: B15 VH with G10V, T30N, T31N, Y32F, S40P, V50A, K58N, A96V, N101S
VL: DIALTQSPASLAVSLGQRATISCRASETINFYGTSFMHWYQQKPGQSPKLLIYRASNLESGIPARFSGSGSRTDFTLTINPVEADDVATYYCQQTNEDPYTFGGGTKLEIK
notes: Mouse monoclonal antibody from hybridoma; also called 9D12-Vk; 9D12VH
B17: Chimeric 22E2 (antibody, V domains shown)
VH: B4 VH with V11L, V33I, K40R, A41P, N55D, G57V, R74K, T97A, L100W, A103S
VL: B4 VL with E31V, H41P
B18: Chimeric 24A5 (antibody, V domains shown)
VH: B5 VH with R31T, Y32S, L33I, N55D, G57V, N59K, S97V, L98R, N99R, Y102E
VL: B4 VL with D17N, E31D, D70N

Target: T1, recombinant human IL-23
Assay: BLI, Fortebio Octet; hybridoma-derived antibody
Experimental: Kinetics and binding affinities were measured using the Fortebio OCTET® (Fortebio, Menlo Park, Calif.) using material generated from hybridoma following single column purification.

B1 and B2 are within 1.5-fold of each other in Kd: 0.026 nM for the first, 0.0328 nM for the second.

Going from B3 to B4, the Kd falls from 0.0346 nM to 0.00557 nM (6.2-fold). The second binds more tightly here.

B5 and B6 are within 1.5-fold of each other in Kd: 0.0115 nM for the first, 0.00793 nM for the second.

Going from B7 to B8, the Kd falls from 0.0226 nM to 0.00678 nM (3.3-fold).

First: B9
Second: B10
The Kd of the first is 1.6-fold higher: 1.02 nM for the first, 0.638 nM for the second. The second binds more tightly here.

B11 and B12 are within 1.5-fold of each other in Kd: 0.0272 nM for the first, 0.0281 nM for the second.

B13 and B14 are within 1.5-fold of each other in Kd: 0.0992 nM for the first, 0.0683 nM for the second.

B15 and B16 cannot be ordered by Kd: less than 0.001 nM for the first, less than 0.001 nM for the second.

First: B1
Second: B2
The koff of the first is 2.9-fold lower: 1.07e-05 s⁻¹ for the first, 3.1e-05 s⁻¹ for the second.

Going from B3 to B4, the koff falls from 5.96e-06 s⁻¹ to 2.14e-06 s⁻¹ (2.8-fold).

B5 and B6 are within 1.5-fold of each other in koff: 3.45e-06 s⁻¹ for the first, 2.61e-06 s⁻¹ for the second.

Going from B7 to B8, the koff falls from 4.57e-06 s⁻¹ to 2.16e-06 s⁻¹ (2.1-fold).

B9 and B10 are within 1.5-fold of each other in koff: 0.000353 s⁻¹ for the first, 0.000269 s⁻¹ for the second.

Compared with B11, B12 is 3.1-fold higher in koff: 4.26e-06 s⁻¹ for the first, 1.34e-05 s⁻¹ for the second.

First: B13
Second: B14
The koff of the first is 2.5-fold higher: 5.24e-06 s⁻¹ for the first, 2.09e-06 s⁻¹ for the second.

B15 and B16 cannot be ordered by koff: less than 1e-06 s⁻¹ for the first, less than 1e-06 s⁻¹ for the second.

First: B1
Second: B2
The kon of the first is 2.2-fold lower: 411000 M⁻¹ s⁻¹ for the first, 918000 M⁻¹ s⁻¹ for the second.

Going from B3 to B4, the kon rises from 172000 M⁻¹ s⁻¹ to 384000 M⁻¹ s⁻¹ (2.2-fold).

B5 and B6 are within 1.5-fold of each other in kon: 299000 M⁻¹ s⁻¹ for the first, 329000 M⁻¹ s⁻¹ for the second.

Compared with B7, B8 is 1.6-fold higher in kon: 202000 M⁻¹ s⁻¹ for the first, 319000 M⁻¹ s⁻¹ for the second.

B9 and B10 are within 1.5-fold of each other in kon: 346000 M⁻¹ s⁻¹ for the first, 421000 M⁻¹ s⁻¹ for the second.

First: B11
Second: B12
The kon of the first is 3-fold lower: 157000 M⁻¹ s⁻¹ for the first, 476000 M⁻¹ s⁻¹ for the second.

Compared with B13, B14 is 1.7-fold lower in kon: 52900 M⁻¹ s⁻¹ for the first, 30600 M⁻¹ s⁻¹ for the second.

Target: T1, recombinant human IL-23
Assay: cell-based or functional assay

Compared with B1, B2 is 2.7-fold higher in “IC50, IL-23 stimulated IL-17 production from mouse splenocytes” value (“IC50, IL-23 stimulated IL-17 production” for short): 0.126 nM for the first, 0.336 nM for the second.

First: B4
Second: B5
The “IC50, IL-23 stimulated IL-17 production” value of the first is 2-fold lower: 0.471 nM for the first, 0.96 nM for the second.

First: B17
Second: B18
The “IC50, IL-23 stimulated IL-17 production” value of the first is 4-fold lower: 0.1 nM for the first, 0.404 nM for the second.

B8 and B11 are within 1.5-fold of each other in “IC50, IL-23 stimulated IL-17 production” value: 0.234 nM for the first, 0.235 nM for the second.

Going from B12 to B13, the “IC50, IL-23 stimulated IL-17 production” value rises from 0.027 nM to 1.41 nM (52-fold).

Compared with B14, B16 is 23-fold lower in “IC50, IL-23 stimulated IL-17 production” value: 1.35 nM for the first, 0.059 nM for the second.

For B7, the “IC50, IL-23 stimulated IL-17 production” value was 0.022 nM and 0.037 nM.
With B9 the “IC50, IL-23 stimulated IL-17 production” value was 0.061 nM and 0.13 nM.

Target: T2, natural human IL-23 from activated …
Assay: cell-based or functional assay

Going from B1 to B3, the “IC50, IL-23 stimulated IL-17 production” value rises from 0.232 nM to 8 nM (34-fold).

Compared with B5, B11 is 2.5-fold higher in “IC50, IL-23 stimulated IL-17 production” value: 2 nM for the first, 5 nM for the second.

For B2, the “IC50, IL-23 stimulated IL-17 production” value was 0.027 nM and 0.025 nM.
In the case of B6, the “IC50, IL-23 stimulated IL-17 production” value is reported as 0.009 nM and 0.013 nM.
In the case of B18, the “IC50, IL-23 stimulated IL-17 production” value is reported as 0.095 nM and 0.102 nM.
For B7, the “IC50, IL-23 stimulated IL-17 production” value was 0.085 nM and 0.031 nM.
B10 was tested, and the “IC50, IL-23 stimulated IL-17 production” value was 0.438 nM and 0.561 nM.
With B15 the “IC50, IL-23 stimulated IL-17 production” value was 2.34 nM and 1.91 nM and 1.6 nM.
With B16 the “IC50, IL-23 stimulated IL-17 production” value was 0.281 nM and 0.138 nM.
